# Results: the RNAGym collection of RNA variant scans (doi:10.7554/elife.80360)
# B1: Hammerhead Ribozyme (parent)
# chain: ACCGGAUGUGCUUUCCGGUCUGAUGAGUCCGUGAGGACGAAACAG
# Variants of: B1
# Assay: self-cleavage, relative activity (ratio to wild type); higher = more cleavage; co-transcriptional
row,Variant,self-cleavage
1,ACCGGAUGUGCUGUCCGGUCUGAUGAGUCCGUGAGGACGAAUCAG [U13G A42U],0.333
2,ACCGGAUGUGCUGUCCGGUCUGAUGAGUCCGUCAGGACGAAACAG [U13G G33C],1.06
3,ACCGGAUGUGCUUACCGGUCUGAUGAGUCCGUGAGGACAAAACAG [U14A G39A],0.359
4,ACCGGAUGUGCUGUCAGGUCUGAUGAGUCCGUGAGGACGAAACAG [U13G C16A],0.765
5,ACCGGAUGUGCUUUCCGGUCUGCUGAGUCCGUGAGGACGAAACAU [A23C G45U],0.377
6,ACCGGAUGUGCUUACCGUUCUGAUGAGUCCGUGAGGACGAAACAG [U14A G18U],0.644
7,ACUGGAUGUACUUUCCGGUCUGAUGAGUCCGUGAGGACGAAACAG [C3U G10A],1.47
8,ACCGGAUGUGCUUUGCGGUCUGAUGAGUGCGUGAGGACGAAACAG [C15G C29G],0.485
9,ACCGGAUGUGCUUUCCUGUCUGAUGAGUCCGUGAGGACGAAACAU [G17U G45U],0.589
10,ACCGGAUGUUCUCUCCGGUCUGAUGAGUCCGUGAGGACGAAACAG [G10U U13C],1.11
11,ACCGGAUGUGCUUUCCGGUUUGAUUAGUCCGUGAGGACGAAACAG [C20U G25U],0.328
12,ACUGGAUGUGCUUUCUGGUCUGAUGAGUCCGUGAGGACGAAACAG [C3U C16U],0.955
13,ACCGGAUGUGCUUUCCGGUAUGCUGAGUCCGUGAGGACGAAACAG [C20A A23C],0.353
14,ACCGGAUGUCCUUUCCGGGCUGAUGAGUCCGUGAGGACGAAACAG [G10C U19G],0.353
15,ACGGGAUGUGCUAUCCGGUCUGAUGAGUCCGUGAGGACGAAACAG [C3G U13A],1.02
16,ACCGGAUCUGCUUUCCGGUCUGAUGAGUCCGUGUGGACGAAACAG [G8C A34U],0.988
17,ACCGUAUGUGAUUUCCGGUCUGAUGAGUCCGUGAGGACGAAACAG [G5U C11A],0.919
18,ACCGGAUGUGCUUUCCGGUCUGAUUCGUCCGUGAGGACGAAACAG [G25U A26C],0.288
19,ACCGGAUGGGCCUUCCGGUCUGAUGAGUCCGUGAGGACGAAACAG [U9G U12C],1.57

row,Variant,self-cleavage
1,ACCGGAUGUGCUUUCCGGUCUGAUGAGUCAGUGAGGACGACACAG [C30A A41C],0.423
2,ACCGGAUGUGAUUUUCGGUCUGAUGAGUCCGUGAGGACGAAACAG [C11A C15U],1.01
3,ACCGGAUGUGCUUUCCGGUCUGAUGAGUCCGACAGGACGAAACAG [U32A G33C],0.846
4,ACCGGAUGUGCUUUCCCGUCUGAUGAGUACGUGAGGACGAAACAG [G17C C29A],0.419
5,ACCGGAUGCGCUUUCCGGUCAGAUGAGUCCGUGAGGACGAAACAG [U9C U21A],0.496
6,ACCGGAUGUGCUUUCCGGUCUGAUGAGUCCGUGAGAACGAACCAG [G36A A42C],0.287
7,ACCGGAUGUGCUUUCCGGUCAGAUGAGUCCGUGAGGACGAAACAG [U21A],0.687
8,ACCGGAUGUGCUUUCCGGUCAGAUGCGUCCGUGAGGACGAAACAG [U21A A26C],0.299
9,ACCGGAUGUGCUUUCCGGUCAGAUGUGUCCGUGAGGACGAAACAG [U21A A26U],0.356
10,ACCGAAUUUGCUUUCCGGUCUGAUGAGUCCGUGAGGACGAAACAG [G5A G8U],1.33
11,ACCGCAUGUGCUUUCCGGUCUGAUGAGUCCGUAAGGACGAAACAG [G5C G33A],0.776
12,ACCGGAUGUGCUUUCCGGUCUGAUGAGCCCGUGAGGAAGAAACAG [U28C C38A],0.789
13,ACCGGAUGUGCUUCCAGGUCUGAUGAGUCCGUGAGGACGAAACAG [U14C C16A],0.931
14,ACCCGAUGUGCUUUUCGGUCUGAUGAGUCCGUGAGGACGAAACAG [G4C C15U],0.557
15,ACCGGAUGUGCUUUCGGGUCUGACGAGUCCGUGAGGACGAAACAG [C16G U24C],0.942
16,AUCGGAUGUGCUUUCCGGUGUGAUGAGUCCGUGAGGACGAAACAG [C2U C20G],0.37
17,ACCGGAUGCGCUUUCCGGUCUGAUGAGUCCGUGAGGACGAAACAA [U9C G45A],0.78
18,AACGGAUGUGCUUUCCGGUCUGAUGAGUACGUGAGGACGAAACAG [C2A C29A],0.376
19,ACCGGAUGUGCUUUCCGGUCUGAUGAGUCCGAGAGGACGAAACAC [U32A G45C],0.593

row,Variant,self-cleavage
1,ACCGGAUGUGUUUUCCGGUCUGAUGAGGCCGUGAGGACGAAACAG [C11U U28G],0.703
2,ACCGGAUGUGUUUCCCGGUCUGAUGAGUCCGUGAGGACGAAACAG [C11U U14C],0.771
3,ACCGGAUGUGCUUUCCGGUCUGAUGAGUCCGUGUUGACGAAACAG [A34U G35U],0.584
4,ACCGCAUGUGCUUUCCCGUCUGAUGAGUCCGUGAGGACGAAACAG [G5C G17C],0.268
5,ACCGGAUGUGCUCUCCGGUCUGAUGAGUCCGUUAGGACGAAACAG [U13C G33U],1.14
6,ACCUGAUGUGCUUUCCGGUCUGAUGUGUCCGUGAGGACGAAACAG [G4U A26U],0.378
7,ACCGGGUGAGCUUUCCGGUCUGAUGAGUCCGUGAGGACGAAACAG [A6G U9A],0.796
8,ACCGGAUGUCCUUUCCGGUCUGAUGAGUCCUUGAGGACGAAACAG [G10C G31U],1.19
9,ACCGGAUGUGCUUUACGGUCUGAUGAGUCCGUGAGGACGAAACUG [C15A A44U],0.441
10,ACCGGAUGUGCUUUCAGGUCUGAUGAGUCCGUGCGGACGAAACAG [C16A A34C],0.799
11,ACCGGAUGUGCUUUCCGGUCUGAUGAGUCCGUGAGUACGAAGCAG [G36U A42G],0.316
12,ACCGGAUGUGCUUUCCGGUCUCAUGAGUCCGUGAGGACGAAAGAG [G22C C43G],0.24
13,ACGGGAUGUGCUUUCCGGUCUGAUGACUCCGUGAGGACGAAACAG [C3G G27C],0.284
14,ACCGGAUGUGCUUUCCGGUCUGAAGAGUCCGUGAGGACGAAACAA [U24A G45A],0.75
15,UCCGGAUGUGCUUUCCGGUCUGAUGAGUCCGUGAGGACGGAACAG [A1U A40G],0.383
16,ACCGGAUGUGCUUUCCGGUCUGAUGAGUCCGUGAGGGCGAAUCAG [A37G A42U],0.32
17,ACGGGAUGUGCUUUCCGGUCUGAUCAGUCCGUGAGGACGAAACAG [C3G G25C],0.33
18,ACUGGAUGUGCUUUCCGGUCUGAUGAGUCCGAGAGGACGAAACAG [C3U U32A],0.95
19,AUCGGAUGUGCUUUCCGGUCUGAUGAGUACGUGAGGACGAAACAG [C2U C29A],0.701
